According to patent US20220249628:

Biological target: full length recombinant von Willebrand factor, P04275

B1: recombinant ADAMTS13 (A Disintegrin And Metalloproteinase with Thrombospondin type 1 motif, member-13) (protein)
chain: AAGGILHLELLVAVGPDVFQAHQEDTERYVLTNLNIGAELLRDPSLGAQFRVHLVKMVILTEPEGAPNITANLTSSLLSVCGWSQTINPEDDTDPGHADLVLYITRFDLELPDGNRQVRGVTQLGGACSPTWSCLITEDTGFDLGVTIAHEIGHSFGLEHDGAPGSGCGPSGHVMASDGAAPRAGLAWSPCSRRQLLSLLSAGRARCVWDPPRPQPGSAGHPPDAQPGLYYSANEQCRVAFGPKAVACTFAREHLDMCQALSCHTDPLDQSSCSRLLVPLLDGTECGVEKWCSKGRCRSLVELTPIAAVHGRWSSWGPRSPCSRSCGGGVVTRRRQCNNPRPAFGGRACVGADLQAEMCNTQACEKTQLEFMSQQCARTDGQPLRSSPGGASFYHWGAAVPHSQGDALCRHMCRAIGESFIMKRGDSFLDGTRCMPSGPREDGTLSLCVSGSCRTFGCDGRMDSQQVWDRCQVCGGDNSTCSPRKGSFTAGRAREYVTFLTVTPNLTSVYIANHRPLFTHLAVRIGGRYVVAGKMSISPNTTYPSLLEDGRVEYRVALTEDRLPRLEEIRIWGPLQEDADIQVYRRYGEEYGNLTRPDITFTYFQPKPRQAWVWAAVRGPCSVSCGAGLRWVNYSCLDQARKELVETVQCQGSQQPPAWPEACVLEPCPPYWAVGDFGPCSASCGGGLRERPVRCVEAQGSLLKTLPPARCRAGAQQPAVALETCNPQPCPARWEVSEPSSCTSAGGAGLALENETCVPGADGLEAPVTEGPGSVDEKLPAPEPCVGMSCPPGWGHLDATSAGEKAPSPWGSIRTGAQAAHVWTPAAGSCSVSCGRGLMELRFLCMDSALRVPVQEELCGLASKPGSRREVCQAVPCPARWQYKLAACSVSCGRGVVRRILYCARAHGEDDGEEILLDTQCQGLPRPEPQEACSLEPCPPRWKVMSLGPCSASCGLGTARRSVACVQLDQGQDVEVDEAACAALVRPEASVPCLIADCTYRWHVGTWMECSVSCGDGIQRRRDTCLGPQAQAPVPADFCQHLPKPVTVRGCWAGPCVGQGTPSLVPHEEAAAPGRTTATPAGASLEWSQARGLLFSPAPQPRRLLPGPQENSVQSSACGRQHLEPTGTIDMRGPGQADCAVAIGRPLGEVVTLRVLESSLNCSAGDMLLLWGRLTWRKMCRKLLDMTFSSKTNTLVVRQRCGRPGGGVLLRYGSQLAPETFYRECDMQLFGPWGEIVSPSLSPATSNAGGCRLFINVAPHARIAIHALATNMGAGTEGANASYILIRDTHSLRTTAFHGQQVLYWESESSQAEMEFSEGFLKAQASLRGQYWTLQSWVPEMQDPQSWKGKEGT
176 kDa dimeric VWF cleavage fragment (VWF immunoblot, vortex-based assay, no hemoglobin): Control reactions with 0.25 U/mL, 0.5 U/mL, and 1 U/mL rADAMTS13 in absence of hemoglobin showed a dose-dependent increase of the 176 kDa dimeric VWF cleavage fragment
ADAMTS13-mediated VWF cleavage in the presence of hemoglobin (176 kDa fragment, densitometry): rADAMTS13 has a dose-dependent potency to overcome the inhibitory effect of hemoglobin on VWF cleavage
cleavage of rVWF after pre-incubation of hemoglobin and rVWF (176 kDa fragment, densitometry): rADAMTS13 supplemented after a pre-incubation time of hemoglobin and rVWF was capable to cleave VWF
